In one series the target is T1, EMB976-MBP (Arabidopsis thaliana, UniProt O04647 1-1038).
T1 sequence: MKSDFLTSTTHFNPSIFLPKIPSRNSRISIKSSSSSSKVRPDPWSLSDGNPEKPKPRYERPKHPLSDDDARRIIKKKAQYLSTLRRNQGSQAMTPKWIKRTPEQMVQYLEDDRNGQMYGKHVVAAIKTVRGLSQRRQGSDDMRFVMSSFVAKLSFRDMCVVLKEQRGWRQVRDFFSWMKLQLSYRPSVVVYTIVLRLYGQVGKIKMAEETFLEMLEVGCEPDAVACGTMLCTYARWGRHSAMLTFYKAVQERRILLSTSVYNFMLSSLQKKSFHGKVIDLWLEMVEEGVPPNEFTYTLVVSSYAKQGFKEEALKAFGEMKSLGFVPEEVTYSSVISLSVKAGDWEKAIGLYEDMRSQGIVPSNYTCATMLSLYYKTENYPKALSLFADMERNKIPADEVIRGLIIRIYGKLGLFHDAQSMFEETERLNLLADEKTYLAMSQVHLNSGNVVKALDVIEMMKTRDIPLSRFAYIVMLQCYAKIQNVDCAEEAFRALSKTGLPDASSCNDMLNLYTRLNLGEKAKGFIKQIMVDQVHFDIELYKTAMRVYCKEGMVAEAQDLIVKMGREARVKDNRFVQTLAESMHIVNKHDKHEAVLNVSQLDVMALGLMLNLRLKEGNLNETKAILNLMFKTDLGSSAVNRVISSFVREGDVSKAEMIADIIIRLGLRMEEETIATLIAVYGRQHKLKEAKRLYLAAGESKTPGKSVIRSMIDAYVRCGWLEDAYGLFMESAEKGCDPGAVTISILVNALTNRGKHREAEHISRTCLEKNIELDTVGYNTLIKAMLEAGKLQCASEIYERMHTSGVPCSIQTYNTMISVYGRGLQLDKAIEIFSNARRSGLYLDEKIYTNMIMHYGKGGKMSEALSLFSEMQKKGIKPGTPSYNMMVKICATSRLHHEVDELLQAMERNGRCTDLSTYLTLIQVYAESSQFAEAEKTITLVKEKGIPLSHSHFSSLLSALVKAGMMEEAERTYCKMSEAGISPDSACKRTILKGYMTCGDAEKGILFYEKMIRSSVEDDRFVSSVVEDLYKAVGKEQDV
In words: EMSA. On the technique in general: Mobility shift assays separate free from complexed probe on a gel.

For series [1], the target named is T2, EMB1006-MBP (Arabidopsis thaliana, UniProt Q9FGR7 44-723).
T2 sequence: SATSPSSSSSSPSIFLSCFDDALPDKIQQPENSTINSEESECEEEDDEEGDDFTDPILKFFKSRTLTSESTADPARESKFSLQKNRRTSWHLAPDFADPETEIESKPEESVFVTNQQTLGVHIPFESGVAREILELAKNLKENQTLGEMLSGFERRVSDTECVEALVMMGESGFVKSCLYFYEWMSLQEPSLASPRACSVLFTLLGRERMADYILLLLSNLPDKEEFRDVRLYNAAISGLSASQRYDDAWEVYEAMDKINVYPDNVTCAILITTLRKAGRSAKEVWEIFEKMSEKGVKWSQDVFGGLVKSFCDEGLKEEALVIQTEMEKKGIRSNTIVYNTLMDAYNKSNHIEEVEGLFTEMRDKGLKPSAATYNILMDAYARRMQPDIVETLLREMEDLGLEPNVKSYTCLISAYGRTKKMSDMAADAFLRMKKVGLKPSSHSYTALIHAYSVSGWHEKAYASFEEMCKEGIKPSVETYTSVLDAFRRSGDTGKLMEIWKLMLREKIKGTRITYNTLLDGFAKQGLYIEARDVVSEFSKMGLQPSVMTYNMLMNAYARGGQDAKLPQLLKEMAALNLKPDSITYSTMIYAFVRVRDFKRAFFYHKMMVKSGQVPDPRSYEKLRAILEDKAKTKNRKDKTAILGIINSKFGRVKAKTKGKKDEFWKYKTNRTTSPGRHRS
In words: competition.

In series [2] the target is T2, EMB1006-MBP. In words: EMSA.

B1: Cy5-clpP1-intron2-976 (ssRNA)
RNA: GAAGAGGUUUUUCAAAUGAUA
Take B1: the binding result with EMB976-MBP is listed as “no binding”.

B2: clpP1-exon2-Cold (ssRNA)
RNA: AAUUACCAAACGUAUAGCAUUCC
On to B2, for which, in the series with EMB1006-MBP [1], the binding result is “binds”.

B3: clpP1-intron2-Cold (ssRNA)
RNA: UUUUUUAGAUUAAAAAAAAAUUCG
B3: the binding result with EMB1006-MBP [1] is “no binding”.

B4: Cy5-clpP1-exon2 (ssRNA)
RNA: AAUUACCAAACGUAUAGCAUUCC
Take B4: in the series with EMB1006-MBP [2], the binding result is listed as “binds”.

The values are drawn from paper doi:10.1101/2023.12.07.570680.
